In assay [1] the target is T1, ChemR23 (Mus musculus, UniProt P97468).
T1 chain: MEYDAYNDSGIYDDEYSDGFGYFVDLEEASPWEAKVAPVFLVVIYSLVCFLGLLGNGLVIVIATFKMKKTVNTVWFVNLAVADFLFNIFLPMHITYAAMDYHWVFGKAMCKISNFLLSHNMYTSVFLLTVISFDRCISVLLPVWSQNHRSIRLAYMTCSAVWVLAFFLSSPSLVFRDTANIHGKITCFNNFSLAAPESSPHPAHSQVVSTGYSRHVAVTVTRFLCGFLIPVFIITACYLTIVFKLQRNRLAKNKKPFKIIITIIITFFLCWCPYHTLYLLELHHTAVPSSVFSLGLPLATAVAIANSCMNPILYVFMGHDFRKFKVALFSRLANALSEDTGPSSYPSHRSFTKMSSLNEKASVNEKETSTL
Kind of assay: radioligand saturation binding (CHO-K1 cells).

Assay [2] deals with T1, ChemR23. Kind of assay: radioligand saturation binding (125I-chemerin, peritoneal macrophages).
In assay [3] the target is T2, ChemR23 (Homo sapiens, UniProt Q99788).
T2 chain: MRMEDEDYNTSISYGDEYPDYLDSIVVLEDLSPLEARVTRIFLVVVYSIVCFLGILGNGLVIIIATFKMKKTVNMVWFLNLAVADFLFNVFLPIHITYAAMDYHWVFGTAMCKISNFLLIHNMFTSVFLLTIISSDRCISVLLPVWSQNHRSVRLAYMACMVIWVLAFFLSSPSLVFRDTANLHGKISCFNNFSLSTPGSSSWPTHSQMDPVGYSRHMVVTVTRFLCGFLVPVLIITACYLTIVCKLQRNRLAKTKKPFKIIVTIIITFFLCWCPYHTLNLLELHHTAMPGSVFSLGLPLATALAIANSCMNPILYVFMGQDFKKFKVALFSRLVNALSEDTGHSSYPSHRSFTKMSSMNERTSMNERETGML
Kind of assay: radioligand.

B1: chemerin (protein)
chain: ELTEAQRRGLQVALEEFHKHPPVQWAFQETSVESAVDTPFPAGIFVRLEFKLQQTSCRKRDWKKPECKVRPNGRKRKCLACIKLGSEDKVLGRLVHCPIETQVLREAEEHQETQCLRVQRAGEDPHSFYFPGQFAFS
modifications: 125I-labelled chemerin
As for B1, the Kd (commonly the constant that tells how readily two partners part at equilibrium) with ChemR23 [1] is 1.1 nM; in the assay with ChemR23 [2], ~1.2 nM.

B2: chemerin (protein)
chain: ELTEAQRRGLQVALEEFHKHPPVQWAFQETSVESAVDTPFPAGIFVRLEFKLQQTSCRKRDWKKPECKVRPNGRKRKCLACIKLGSEDKVLGRLVHCPIETQVLREAEEHQETQCLRVQRAGEDPHSFYFPGQFAFS
In the case of B2, the Kd with ChemR23 [3] is 0.9 nM.

For the origin of these results see article PMC3386906 (2012).
